{
  "source": "patent US20180017550",
  "key": {"[1]": {"biological_target": "human p53 oncoprotein (cellular tumor antigen p53), cell-free expressed from pETBlue-2 with C-terminal HSV epitope tag and polyhistidine tag (UniProt P04637)"}, "[2]": {"biological_target": "human protein kinase A catalytic subunit alpha, cell-free expressed with C-terminal HSV epitope tag and polyhistidine tag (UniProt P17612)"}, "[3]": {"biological_target": "human MDM2 (ubiquitin-protein ligase E3 MDM2), cell-free expressed with C-terminal HSV epitope tag and polyhistidine tag (UniProt Q00987)"}, "[4]": {"test_system": "Human casein kinase II (CK), cell-free expressed with C-terminal HSV epitope tag and polyhistidine tag"}},
  "data": [
    {"substance": "human recombinant Src pp60 tyrosine kinase (Invitrogen Corporation)", "values": [
      {"measurement": "phosphorylation of photo-transferred protein on microarray, anti-phosphotyrosine (RC20) detection", "setting": "[1]", "value": "p53 is not phosphorylated by either kinase"},
      {"measurement": "phosphorylation of photo-transferred protein on microarray, anti-phosphotyrosine (RC20) detection", "setting": "[2]", "value": "significant phosphorylation of CK and PKA"},
      {"measurement": "phosphorylation of photo-transferred protein on microarray, anti-phosphotyrosine (RC20) detection", "setting": "[3]", "value": "Both kinases heavily phosphorylate the MDM protein"},
      {"measurement": "phosphorylation of photo-transferred protein on microarray, anti-phosphotyrosine (RC20) detection", "setting": "[4]", "value": "significant phosphorylation of CK and PKA"}
    ]}
  ]
}
